Test results taken from patent US11499162B2, “Plants having increased tolerance to herbicides” (BASF SE, priority 2016, dated 2022).
Substitutions are numbered along the chain they refer to. Names may count otherwise.

B1: N70VM155V: mutated TriA variant of SEQ ID NO: 2 (protein)
chain: MQTLSIQHGTLVTMDQYRRVLGDSWVHVQDGRIVALGVHAESVPPPADRVIDARGKVVLPGFINAHTHVVQILLRGGPSHGRQLYDWLFNVLYPGQKAMRPEDVAVAVRLYCAEAVRSGITTINDNADSAIYPGNIEAAMAVYGEVGVRVVYARVFFDRMDGRIQGYVDALKARSPQVELCSIMEETAVAKDRITALSDQYHGTAGGRISVWPAPAITPAVTVEGMRWAQAFARDRAVMWTLHMAESDHDERLHWMSPAEYMECYGLLDERLQVAHCVYFDRKDVRLLHRHNVKVASQVVSNAYLGSGVAPVPEMVERGMAVGIGTDDGNCNDSVNMIGDMKFMAHIHRAVHRDADVLTPEKILEMATIDGARSLGMDHEIGSIETGKRADLILLDLRHPQTTPHHHLAATIVFQAYGNEVDTVLIDGNVVMENRRLSFLPPERELAFLEEAQSRATAILQRANMVANPAWRSL
modifications: Pseudomonas
B2: L74V: mutated TriA variant of SEQ ID NO: 2 (protein)
chain: B1 chain with V70N, L74V, V155M
modifications: Pseudomonas
B3: N70VQ71L92VM155AF157A: mutated TriA variant of SEQ ID NO: 2 (protein)
chain: B1 chain with Q71L, L92V, V155A, F157A
modifications: Pseudomonas
B4: L88VL92IF157V: mutated TriA variant of SEQ ID NO: 2 (protein)
chain: B1 chain with V70N, L88V, L92I, V155M, F157V
modifications: Pseudomonas
B5: Q71LV91A: mutated TriA variant of SEQ ID NO: 2 (protein)
chain: B1 chain with V70N, Q71L, V91A, V155M
modifications: Pseudomonas
B6: V69S: mutated TriA variant of SEQ ID NO: 2 (protein)
chain: B1 chain with V69S, V70N, V155M
modifications: Pseudomonas
B7: Q71LL88AV91AL92VF157L: mutated TriA variant of SEQ ID NO: 2 (protein)
chain: B1 chain with V70N, Q71L, L88A, V91A, L92V, V155M, F157L
modifications: Pseudomonas
B8: L88VL92V: mutated TriA variant of SEQ ID NO: 2 (protein)
chain: B1 chain with V70N, L88V, L92V, V155M
modifications: Pseudomonas
B9: N70LQ71LF157A: mutated TriA variant of SEQ ID NO: 2 (protein)
chain: B1 chain with V70L, Q71L, V155M, F157A
modifications: Pseudomonas
B10: F157T: mutated TriA variant of SEQ ID NO: 2 (protein)
chain: B1 chain with V70N, V155M, F157T
modifications: Pseudomonas
B11: Q71LL88AV91AL92V: mutated TriA variant of SEQ ID NO: 2 (protein)
chain: B1 chain with V70N, Q71L, L88A, V91A, L92V, V155M
modifications: Pseudomonas
B12: V69A: mutated TriA variant of SEQ ID NO: 2 (protein)
chain: B1 chain with V69A, V70N, V155M
modifications: Pseudomonas
B13: Q96V: mutated TriA variant of SEQ ID NO: 2 (protein)
chain: B1 chain with V70N, Q96V, V155M
modifications: Pseudomonas
B14: L88AF157L: mutated TriA variant of SEQ ID NO: 2 (protein)
chain: B1 chain with V70N, L88A, V155M, F157L
modifications: Pseudomonas
B15: N70IQ71L92VM155AF157A: mutated TriA variant of SEQ ID NO: 2 (protein)
chain: B1 chain with V70I, Q71L, L92V, V155A, F157A
modifications: Pseudomonas
B16: N70LQ71ID128IM155V: mutated TriA variant of SEQ ID NO: 2 (protein)
chain: B1 chain with V70L, Q71I, D128I
modifications: Pseudomonas
B17: Q71LV91AL92V: mutated TriA variant of SEQ ID NO: 2 (protein)
chain: B1 chain with V70N, Q71L, V91A, L92V, V155M
modifications: Pseudomonas
B18: L74A: mutated TriA variant of SEQ ID NO: 2 (protein)
chain: B1 chain with V70N, L74A, V155M
modifications: Pseudomonas
B19: N70IQ71IF157A: mutated TriA variant of SEQ ID NO: 2 (protein)
chain: B1 chain with V70I, Q71I, V155M, F157A
modifications: Pseudomonas
B20: N70VD128TM155V: mutated TriA variant of SEQ ID NO: 2 (protein)
chain: B1 chain with D128T
modifications: Pseudomonas
B21: L88AF157I: mutated TriA variant of SEQ ID NO: 2 (protein)
chain: B1 chain with V70N, L88A, V155M, F157I
modifications: Pseudomonas
B22: N70VD128SM155V: mutated TriA variant of SEQ ID NO: 2 (protein)
chain: B1 chain with D128S
modifications: Pseudomonas
B23: L88VL92I: mutated TriA variant of SEQ ID NO: 2 (protein)
chain: B1 chain with V70N, L88V, L92I, V155M
modifications: Pseudomonas
B24: V69L: mutated TriA variant of SEQ ID NO: 2 (protein)
chain: B1 chain with V69L, V70N, V155M
modifications: Pseudomonas
B25: L88VL92VF157A: mutated TriA variant of SEQ ID NO: 2 (protein)
chain: B1 chain with V70N, L88V, L92V, V155M, F157A
modifications: Pseudomonas
B26: N70LQ71ID128IM155VF157L: mutated TriA variant of SEQ ID NO: 2 (protein)
chain: B1 chain with V70L, Q71I, D128I, F157L
modifications: Pseudomonas

Format: biochemical
Conditions: pH 7.2
How it was run: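 E. coli resting cells expressing His-tagged TriA incubated with azines, melamine or atrazine. Enzyme in 25 mM sodium phosphate pH 7.2 at 30 °C, substrate 1–10 nM. Loss of parent and formation of OH-metabolite followed by UPLC-HR-MS; % degradation relative to empty-vector cells.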

Degradation in % of 6-cyclopentyl-N4-(2,3,4,5,6-pentafluorophenyl)-1,3,5-triazine-2,4-diamine, 3%:
B6, B17, B19

Degradation in % of 6-cyclopentyl-N4-(2,3,4,5,6-pentafluorophenyl)-1,3,5-triazine-2,4-diamine, 1%:
B3, B7, B11, B15, B18, B20

Degradation in % of 6-cyclopentyl-N4-(2,3,4,5,6-pentafluorophenyl)-1,3,5-triazine-2,4-diamine, 0%:
B1, B2, B4, B5, B8, B9, B10, B12, B13, B14, B16, B21, B22, B23, B24, B25, B26

Degradation in % of Melamine, 9%:
B16

Degradation in % of Melamine, 4%:
B7, B13, B20

Degradation in % of Melamine, 7%:
B17

Degradation in % of Melamine, 2%:
B9, B14

Degradation in % of Melamine, 60%:
B10

Degradation in % of Melamine, 5%:
B4, B6, B12

Degradation in % of Melamine, 3%:
B2, B26

Degradation in % of Melamine, 0%:
B1, B3, B5, B8, B11, B15, B18, B19, B21, B22, B24, B25

Degradation in % of Melamine, 8%:
B23
